Measured values from US7981423B2, “Rage fusion proteins” (Transtech Pharma, Inc., priority 2004, dated 2011).

Key:
[1] = tested on: RAGE (S100b-stimulated THP-1 cells); test: S100b/RAGE-induced production of TNF-α in THP-1 cells; assay type: cell-based; conditions: 10 μg protein, FIG. 10
Protocol: THP-1 myeloid cells may be cultured in RPMI-1640 media supplemented with 10% FBS and induced to secrete TNF-α via stimulation of RAGE with S100b. When such stimulation occurs in the presence of a RAGE fusion protein, induction of TNF-α, by S100b binding to RAGE may be inhibited.
Previous work has shown that the myeloid THP-1 cells may secrete TNF-α in response to RAGE ligands. In this assay, THP-1 cells were cultured in RPMI-1640 media supplemented with 10% FBS using a protocol provided by ATCC. […] The amount of TNF-α secreted by the THP-1 cells was measured 24 hours after the addition of the proteins to the cell culture using a commercially available ELISA kit for TNF-α (R&D Systems, Minneapolis, Minn.).

[2] = tested on: male C57BL/6 mice; test: Animal model of stroke (carotid/cerebral artery occlusion and reperfusion); assay type: in vivo, mouse; conditions: treated just prior to reperfusion
Protocol: For example, the RAGE fusion proteins of the present invention may also be used to treat stroke. […] In this model, the […] of a mouse is ligated and then reperfased to form an infart. To assess the efficacy of RAGE fusion proteins to treat or prevent stroke, mice were treated with sRAGE or TTP-4000 or control immunoglobulin just prior to reperfusion.
TTP-4000 was also compared to sRAGE in a disease relevant animal model of stroke. In this model, the […] of a mouse was ligated for 1 hour followed by 23 hours of reperfusion at which point the mice were sacrificed and the area of the infarct in the brain was assessed. […] After the nylon suture had been in place for 1 hour, the animal was re-anesthetized, rectal temperature was recorded and the suture was removed and the incision closed.
Infarct volume was determined by anesthetizing the animals with an intraperitoneal injection of sodium pentobarbital (50 mg/kg) and then removing the brains. […] The infarct area in each section was determined with a computer-assisted image analysis system, consisting of a Power Macintosh computer equipped with a Quick Capture frame grabber card, Hitachi CCD camera mounted on a camera stand. […] The images were captured and the total area of infarct was determined over the sections. […] Summing the infarct volumes of the sections calculated the total infarct volume. […]

B1: TTP-4000: four domain RAGE fusion protein (SEQ ID NO: 32): human RAGE amino acids 1-251 linked to CH2 and CH3 domains of human IgG (protein)
chain: MAAGTAVGAWALVLSLWGAVVGAQNITARIGEPLVLKCKGAPKKPPQRLEWKLNTGRTEAWKVLSPQGGGPWDSVARVLPNGSLFLPAVGIQDEGIFRCQAMNRNGKETKSNYRVRVYQIPGKPEIVDSASELTAGVPNKVGTCVSEGSYPAGTLSWHLDGKPLVPNEKGVSVKEQTRRHPETGLFTLQSELMVTPARGGDPRPTFSCSFSPGLPRHRALRTAPIQPRVWEPVPLEEVQLVVEPEGGAVAPPSVFLFPPKPKDTLMISRTPEVTCVVVDVSHEDPEVKFNWYVDGVEVHNAKTKPREEQYNSTYRVVSVLTVLHQDWLNGKEYKCKVSNKALPAPIEKTISKAKGQPREPQVYTLPPSRDELTKNQVSLTCLVKGFYPSDIAVEWESNGQPENNYKTTPPVLDSDGSFFLYSKLTVDKSRWQQGNVFSCSVMHEALHNHYTQKSLSLSPGK
- reduction of S100b induction of TNF-α ([1]; S100b 0.1 mg/ml FAC, 24 hours): ~70%
- effect on S100b induction of TNF-α (in words) ([1]; S100b 0.1 mg/ml): at least as effective in blocking S100b induction of TNF-α as is sRAGE
- reduction in infarct volume compared to sRAGE (in words) [2]: significantly greater reduction in infarct volume
